In patent publication US20250388640A1 (SYNTHEKINE, published 2025):
Positions count from the first letter of the chain named. In names and notes the source's numbering stands.

B1: human IL12 mutein, hIL-12p40 E81A, F82A with hIL-12p35-8X His (ligand)
chain 1: IWELKKDVYVVELDWYPDAPGEMVVLTCDTPEEDGITWTLDQSSEVLGSGKTLTIQVKAAGDAGQYTCHKGGEVLSHSLLLLHKKEDGIWSTDILKDQKEPKNKTFLRCEAKNYSGRFTCWWLTTISTDLTFSVKSSRGSSDPQGVTCGAATLSAERVRGDNKEYEYSVECQEDSACPAAEESLPIEVMVDAVHKLKYENYTSSFFIRDIIKPDPPKNLQLKPLKNSRQVEVSWEYPDTWSTPHSYFSLTFCVQVQGKSKREKKDRVFTDKTSATVICRKNASISVRAQDRYYSSSWSEWASVPCS
chain 2: RNLPVATPDPGMFPCLHHSQNLLRAVSNMLQKARQTLEFYPCTSEEIDHEDITKDKTSTVEACLPLELTKNESCLNSRETSFITNGSCLASRKTSFMMALCLSSIYEDLKMYQVEFKTMNAKLLMDPKRQIFLDQNMLAVIDELMQALNFNSETVPQKSSLEEPDFYKTKIKLCILLHAFRIRAVTIDRVMSYLNASGSHHHHHHHH
B2: human IL12 mutein, hIL-12p40 E81A, F82A, K106A with hIL-12p35-8X His (ligand)
chain 1: B1 chain 1 with K84A
chain 2: B1 chain 2
B3: human IL12 mutein, hIL-12p40 E81I, F82A with hIL-12p35-8X His (ligand)
chain 1: B1 chain 1 with A59I
chain 2: B1 chain 2
B4: human IL12 mutein, hIL-12p40 E81L, F82A with hIL-12p35-8X His (ligand)
chain 1: B1 chain 1 with A59L
chain 2: B1 chain 2
B5: human IL12 mutein, hIL-12p40 E81V, F82A with hIL-12p35-8X His (ligand)
chain 1: B1 chain 1 with A59V
chain 2: B1 chain 2
B6: human IL12 mutein, hIL-12p40 E81K, F82A with hIL-12p35-8X His (ligand)
chain 1: B1 chain 1 with A59K
chain 2: B1 chain 2
B7: human IL12 mutein, hIL-12p40 E81R, F82A with hIL-12p35-8X His (ligand)
chain 1: B1 chain 1 with A59R
chain 2: B1 chain 2

Each binder was assayed against T1, hIL-12 receptor signaling complex (hIL-12Rβ1 and hIL-12Rβ2) (human, UniProt P42701 24-662; Q99665 24-862) (assay: cell-based or functional assay).
T1 sequence (Q99665 24-862, chain 2 of 2, other chains not shown): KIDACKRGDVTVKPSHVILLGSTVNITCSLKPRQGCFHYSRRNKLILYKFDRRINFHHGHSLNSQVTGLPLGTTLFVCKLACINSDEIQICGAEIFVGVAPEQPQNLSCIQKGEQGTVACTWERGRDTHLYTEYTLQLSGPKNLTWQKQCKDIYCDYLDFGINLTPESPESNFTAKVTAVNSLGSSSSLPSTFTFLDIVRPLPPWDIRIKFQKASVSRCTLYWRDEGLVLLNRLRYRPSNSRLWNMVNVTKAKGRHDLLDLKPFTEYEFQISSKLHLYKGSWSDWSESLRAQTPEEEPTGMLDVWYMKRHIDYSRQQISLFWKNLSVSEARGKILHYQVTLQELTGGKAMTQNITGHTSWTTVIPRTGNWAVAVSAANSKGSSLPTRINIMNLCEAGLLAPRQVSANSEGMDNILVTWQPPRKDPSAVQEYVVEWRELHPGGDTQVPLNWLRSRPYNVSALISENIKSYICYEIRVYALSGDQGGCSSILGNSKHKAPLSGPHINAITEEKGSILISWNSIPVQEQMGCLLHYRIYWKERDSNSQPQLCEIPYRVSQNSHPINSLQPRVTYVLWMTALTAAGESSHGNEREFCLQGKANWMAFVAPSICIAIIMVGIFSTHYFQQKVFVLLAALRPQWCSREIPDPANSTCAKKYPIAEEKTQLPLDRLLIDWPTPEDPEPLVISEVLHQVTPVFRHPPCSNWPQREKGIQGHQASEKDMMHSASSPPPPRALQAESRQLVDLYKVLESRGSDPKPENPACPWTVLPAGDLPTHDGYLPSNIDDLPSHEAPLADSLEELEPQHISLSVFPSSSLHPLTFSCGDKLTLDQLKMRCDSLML

| pSTAT4 [%+] EC50, CD8+ T Cells [nM] | pSTAT4 [%+] EC50, CD56hi NK Cells [nM] | pSTAT4 [%+] Emax, CD8+ T Cells [%+] | pSTAT4 [%+] Emax, CD56hi NK Cells [%+] | Binder |
| --- | --- | --- | --- | --- |
| 1.13 | 1.85 | 80.2 | 85.2 | B1 |
| 1.86 | 4.03 | 77.7 | 86.9 | B2 |

Molecular target: T1, hIL-12 receptor signaling complex …
Test: cell-based or functional assay
Remark: another data set of the same source

| IFNy [gMFI] EC50, CD8+ T Cells [nM] | IFNy [gMFI] EC50, CD56hi NK Cells [nM] | IFNy [gMFI] Emax, CD8+ T Cells [gMFI] | IFNy [gMFI] Emax, CD56hi NK Cells [gMFI] | Binder |
| --- | --- | --- | --- | --- |
| 0.41 | 2.56 | 17100 | 187000 | B1 |
| 1.4 | 2.8 | 15000 | 140000 | B2 |
| 0.55 | 1.48 | 11700 | 313000 | B3 |
| 0.39 | 0.47 | 11500 | 223000 | B4 |
| 0.38 | 0.5 | 10600 | 194000 | B5 |
| 0.51 | 0.62 | 13200 | 123000 | B6 |
| 0.35 | 0.75 | 16300 | 156000 | B7 |

Molecular target: T1, hIL-12 receptor signaling complex …
Test: cell-based or functional assay
Remark: another data set of the same source

| pSTAT4 [gMFI] EC50, CD8+ T Cells [nM] | pSTAT4 [gMFI] EC50, CD56hi NK Cells [nM] | pSTAT4 [gMFI] Emax, CD8+ T Cells [gMFI] | pSTAT4 [gMFI] Emax, CD56hi NK Cells [gMFI] | Binder |
| --- | --- | --- | --- | --- |
| 6.6 | 5.94 | 100000 | 25000 | B1 |
| 9.75 | 156 | 86900 | 35700 | B2 |

Molecular target: T1, hIL-12 receptor signaling complex …
Test: cell-based or functional assay
Remark: another data set of the same source

| IFNy [%+] EC50, CD8+ T Cells [nM] | IFNy [%+] EC50, CD56hi NK Cells [nM] | IFNy [%+] Emax, CD8+ T Cells [%+] | IFNy [%+] Emax, CD56hi NK Cells [%+] | Binder |
| --- | --- | --- | --- | --- |
| 0.095 | 0.02 | 81.5 | 94 | B1 |
| 0.533 | 0.079 | 78.4 | 90.8 | B2 |
| 0.37 | 0.061 | 68.3 | 93.7 | B3 |
| 0.185 | 0.003 | 68 | 94.8 | B4 |
| 0.226 | 0.026 | 67.4 | 94.6 | B5 |
| 0.305 | 0.046 | 78.5 | 93.7 | B6 |
| 0.178 | 0.036 | 81.6 | 94 | B7 |
